The text below walks through data of US20210238283A1 (Y BIOLOGICS, published 2021).

Experiment [1] deals with T1, monkey (Rhesus monkey) LAG-3 overexpressed on HEK293E cells (Rhesus monkey, UniProt A0A5F8A874 23-533).
T1 construct: whole, on cells; also called HEK293E-MrhLAG3; MrhLAG3 (Rhesus Monkey)
T1 sequence: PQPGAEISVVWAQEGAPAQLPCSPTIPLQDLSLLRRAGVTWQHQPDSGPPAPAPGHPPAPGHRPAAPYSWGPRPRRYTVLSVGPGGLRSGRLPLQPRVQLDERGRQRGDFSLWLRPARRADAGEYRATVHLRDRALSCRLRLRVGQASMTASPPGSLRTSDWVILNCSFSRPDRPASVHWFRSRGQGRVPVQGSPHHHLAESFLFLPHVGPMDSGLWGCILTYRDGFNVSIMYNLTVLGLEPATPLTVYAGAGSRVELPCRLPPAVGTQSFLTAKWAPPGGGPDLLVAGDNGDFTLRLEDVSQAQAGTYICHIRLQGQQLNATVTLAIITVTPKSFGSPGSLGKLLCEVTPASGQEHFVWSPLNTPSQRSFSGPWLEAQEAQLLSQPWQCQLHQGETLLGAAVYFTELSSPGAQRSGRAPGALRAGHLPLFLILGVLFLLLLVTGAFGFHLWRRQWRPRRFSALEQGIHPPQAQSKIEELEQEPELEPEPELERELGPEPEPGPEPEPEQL
Put plainly: flow cytometry, HEK293E cells overexpressing monkey LAG-3. As for the experimental part:
After that, the cells were washed three times with PBS containing 2% FBS and then subjected to the reaction for 30 minutes at 4° C. with anti-human IgG antibody (#FI-3000, Vectorlabs) linked with FITC fluorescent. The cells were washed by the same washing process as above followed by suspension in 0.2 ml PBS containing 2% FBS. The cells were then analyzed by FACSCanto II flow cytometer.
(In general: A flow cytometer gives signals particle by particle.)

Experiment [2] has as its target T2, recombinant human LAG-3 extracellular domain fused with mouse Fc (hLAG-3-mFc) (human, UniProt P18627 29-450).
T2 construct: range 29-450; Made in HEK293F cells; also called human LAG-3 antigen; wild-type (WT) LAG-3; not shown: mouse Fc (mFc) at the carboxy terminal
T2 sequence (looked up): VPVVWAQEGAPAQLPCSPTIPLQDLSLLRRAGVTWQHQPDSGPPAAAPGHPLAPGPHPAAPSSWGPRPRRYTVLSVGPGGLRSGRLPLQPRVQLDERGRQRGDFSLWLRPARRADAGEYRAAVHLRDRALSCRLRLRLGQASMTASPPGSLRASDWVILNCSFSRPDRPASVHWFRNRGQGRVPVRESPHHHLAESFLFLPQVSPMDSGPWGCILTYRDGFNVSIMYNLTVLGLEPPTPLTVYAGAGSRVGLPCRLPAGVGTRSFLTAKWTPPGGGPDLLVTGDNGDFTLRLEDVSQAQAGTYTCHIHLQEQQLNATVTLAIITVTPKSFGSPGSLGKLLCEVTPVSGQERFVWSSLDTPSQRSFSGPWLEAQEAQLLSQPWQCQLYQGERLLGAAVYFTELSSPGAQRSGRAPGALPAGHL
Put plainly: Octet biolayer interferometry, 1:1 global fit. As to the method:
(§1) After stabilization for 10 minutes in a buffer (#18-1042, Fortebio Inc.), immobilized antigen or antibody was washed out for 5 minutes with the buffer. The antibody or antigen desired for binding was prepared at different concentrations (0.94-60 nM) in a 96-well plate (#655209, Greiner Bio-One, USA) and subjected to the association reaction for 10 minutes followed by dissociation reaction for 10 minutes or 30 minutes.
On the technique in general: BLI is a label-free optical method that tracks binding on a fibre tip over time.

For experiment [3], the target named is T3, recombinant monkey LAG-3 fused with mouse Fc (MrhLAG-3-mFc) (monkey).
T3 construct: also called monkey LAG-3 antigen
Put plainly: Octet biolayer interferometry, 1:1 global fit. As for the experimental part: as §1

Experiment [4] has as its target T4, recombinant mouse LAG-3 fused with mouse Fc (mLAG-Fc) (mouse, UniProt Q61790 24-442, limits assumed).
T4 construct: also called mouse LAG-3 antigen; not shown: mouse Fc (mFc) at the carboxy terminal
T4 sequence (looked up): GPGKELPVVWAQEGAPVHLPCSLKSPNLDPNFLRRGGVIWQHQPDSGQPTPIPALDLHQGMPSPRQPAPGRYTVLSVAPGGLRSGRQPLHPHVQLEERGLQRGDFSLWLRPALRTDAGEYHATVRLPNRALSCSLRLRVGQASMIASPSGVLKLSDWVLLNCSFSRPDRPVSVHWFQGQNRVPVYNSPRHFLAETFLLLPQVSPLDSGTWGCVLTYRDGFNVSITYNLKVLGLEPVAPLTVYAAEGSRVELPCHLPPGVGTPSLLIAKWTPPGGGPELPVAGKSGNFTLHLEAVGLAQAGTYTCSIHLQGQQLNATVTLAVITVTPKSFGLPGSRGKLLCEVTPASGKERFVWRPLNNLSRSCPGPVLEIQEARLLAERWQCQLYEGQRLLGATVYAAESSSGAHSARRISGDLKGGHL
Put plainly: Octet biolayer interferometry, 1:1 global fit. As to the method:
as §1

The term EC50 denotes the concentration that produces a half-maximal response. One may read the koff as the rate constant with which the complex falls apart. As a reminder, the kon is a measure of how fast the partners come together.

B1: human anti-LAG-3 monoclonal antibody 1E09 (antibody, V domains shown)
VH: QVQLVQSGGDLVKPGGSLRLSCAASGFSFSDHYMNWIRQAPGKGLEWVAYIDTSATYIYYADSVKGRFTISRDNAKNSLYLQMNSLRAEDTAVYYCARDNWGSLDYWGQGALVTVSS
VL: DIQMTQSPSSLSPSVGDRVTITCQASQEISIYLNWYQQKPGKAPKLLIYDASNLETGVPSRFSGSGSGTDFTLTISSLQPEDFATYYCQQTYITPYTFGQGTKLDIK
notes: Tested as full IgG converted from scFv; also called LAG-3-1E09; Parent (1E09)
The molecule B1 had a concentration for a half-maximal effect (EC50) in experiment [1] of 0.246 µg/mL. The off-rate (koff) came to 7.23e-05 s⁻¹ in experiment [2], 6.08e-05 s⁻¹ in experiment [3] and 0.000256 s⁻¹ in experiment [4]. The kon stood at 788000 M⁻¹ s⁻¹ in experiment [2], 185000 M⁻¹ s⁻¹ in experiment [3] and 430000 M⁻¹ s⁻¹ in experiment [4].
